The record followed here is patent publication CN114380913A (SHANGHAI LUBRIGHT MEDICINE TECH CO LTD, dated 2022).

A word on the EC50: it is the concentration giving half of the maximal effect. One may read the IC50 as the concentration at which inhibition is half-maximal.

In test [1] the target is T1, 生物素标记的人PD-L1(acro，货号:PD1-H82E5) (human, UniProt Q9NZQ7 19-238, biotin label (site not stated)).
T1 construct: Bought biotinylated protein; also called Biotin hPD-L1; BiotinhPD-L1
As to the kind of experiment: BLI (Octet RED96e), avidity format: Biotin hPD-L1 on SA sensor, antibody in solution. (In BLI a coated tip is dipped into the sample, and binding shifts an interference pattern.)

Test [2] deals with T2, CHOK1-h PD-L1(GenScript M00543)细胞表面PD-L1 (human, UniProt Q9NZQ7 19-290).
T2 construct: whole, on cells; also called 细胞表面抗原PD-L1
As to the kind of experiment: FACS on CHOK1-hPD-L1 cells.

In test [3] the target is T3, 人PD-L1 his(Acro，货号:PD1-H5229) (human, UniProt Q9NZQ7 19-238).
T3 construct: Bought protein; also called human PD-L1 his; not shown: His tag
As to the kind of experiment: BLI (Octet RED96e), affinity format: antibody on AHC sensor, human PD-L1 his in solution.

Test [4] concerns the target T4, 猴PD-L1-Fc(Acro，货号:PD1-C5253) (monkey (cynomolgus)).
T4 construct: Bought Fc fusion; also called Cyno PD-L1; 食蟹猴PD-L1
As to the kind of experiment: BLI (Octet RED96e), avidity format: antibody on CH1 sensor, monkey PD-L1-Fc in solution.

Test [5] deals with T5, 生物素标记的鼠PD-L1(Sino，货号:50010-M08H-B) (mouse, UniProt Q9EP73 19-238, biotin label (site not stated)).
T5 construct: Bought biotinylated protein; also called Biotin mPD-L1
T5 sequence (Q9EP73 19-238 limits assumed, stated change not applied): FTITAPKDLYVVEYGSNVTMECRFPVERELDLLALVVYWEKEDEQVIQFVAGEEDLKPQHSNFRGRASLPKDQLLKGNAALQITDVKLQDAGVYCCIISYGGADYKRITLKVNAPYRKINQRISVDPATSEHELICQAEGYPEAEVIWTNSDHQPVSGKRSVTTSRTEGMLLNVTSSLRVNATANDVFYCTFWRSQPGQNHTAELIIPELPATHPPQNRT
As to the kind of experiment: BLI (Octet RED96e), avidity format: Biotin mPD-L1 on SA sensor, antibody in solution.

For test [6], the target named is T2, CHOK1-h PD-L1(GenScript M00543)细胞表面PD-L1. As to the kind of experiment: FACS competition: blocks Biotin PD-1 mFc binding to CHOK1-hPD-L1 cells.

B1: Ab1910T2 (antibody, human IgG1, kappa, N297A, V domains shown)
VH: EVQLVESGGGLVQPGGSLRLSCAASGFPFTNYAMSWVRQAPGKGLEWVSSISGSGAGTYYADSVKGRFTISRDNSKNTLYLQMNSLRAEDTAVYYCAKDLFPTIFGVVTTNYMDVWGKGTTVTVSS
VL: DIQMTQSPSSLSASVGDRVTITCRASQSISSYLNWYQQKPGKAPKLLIYSASSLQIGVPSRFSGSGSGTDFTLTISSLQPEDFATYYCQQSYSIPVTFGQGTKVEIKR
notes: Full human IgG1 (Fc N297A) / kappa, made in ExpiCHO; also called 本申请抗PD-L1抗体Ab1910T2; 所述抗PD-L1单克隆抗体
Turning to B1, the Kd is ~150 pM in test [1], ~26000 pM in test [3], ~790 pM in test [4] and ~580 pM in test [5]. The molecule also had an EC50 in test [2] of 0.02 µg/mL. In test [6], the IC50 is 1.02 µg/mL.
